In patent publication US9029340 one finds percent of cells stained positive data, which are given here for one substance.

The assay addresses prostate-specific membrane antigen (PSMA) (human) (UniProt Q04609). Put plainly: flow cytometry; J591 (1:5000) plus Alexa488 secondary on PC3-PIP cells, PSMA-negative PC3-Flu cells as reference.
UniProt Q04609, sequence (Q04609 whole entry): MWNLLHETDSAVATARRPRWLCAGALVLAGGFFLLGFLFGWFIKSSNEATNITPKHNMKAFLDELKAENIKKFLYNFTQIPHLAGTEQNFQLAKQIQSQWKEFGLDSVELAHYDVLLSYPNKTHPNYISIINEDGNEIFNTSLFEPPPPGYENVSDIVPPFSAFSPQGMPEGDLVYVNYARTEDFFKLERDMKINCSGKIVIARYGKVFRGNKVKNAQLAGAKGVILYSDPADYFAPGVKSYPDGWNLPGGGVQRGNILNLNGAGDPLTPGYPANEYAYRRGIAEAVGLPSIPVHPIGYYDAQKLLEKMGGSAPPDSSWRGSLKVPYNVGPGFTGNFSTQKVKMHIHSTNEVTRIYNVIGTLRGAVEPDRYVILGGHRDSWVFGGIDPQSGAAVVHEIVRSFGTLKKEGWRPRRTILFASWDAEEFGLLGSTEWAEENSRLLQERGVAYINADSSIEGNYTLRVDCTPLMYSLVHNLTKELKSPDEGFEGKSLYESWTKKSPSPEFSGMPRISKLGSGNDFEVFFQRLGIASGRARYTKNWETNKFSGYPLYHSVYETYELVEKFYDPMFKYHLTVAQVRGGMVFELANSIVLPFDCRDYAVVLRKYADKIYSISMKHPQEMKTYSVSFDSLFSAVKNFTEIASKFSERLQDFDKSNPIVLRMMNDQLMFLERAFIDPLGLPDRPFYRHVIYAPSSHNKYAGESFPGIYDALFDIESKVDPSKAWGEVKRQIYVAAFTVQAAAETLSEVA

For the substance anti-PSMA (J591) antibody, the percent of cells stained positive was 48.2%.
